This data set can be described thus: soluble on expression in E. coli; label from the status in PepcDB or PDB records.
“MRTLAIDIGGTKIALAIVEEGTIIQRYQIATPVVQDVTKFVQAILEKVTEWLPSIDYVGVSTTGYVTPEGITSINPETLNFPVPFPLAQTLEQLTNKPVSILNDAQAAAWFEFVQLKNPSLNMAFITVSTGVGGGIIIDGKLHKGNSGLAGHIGHMSVAIEGPLCGCGQRGCVESMASGNAIQKESEATFTETMSNVELFKQAAFNPKAEAIINRSVQAVATLCCNLKACLDLDIIVLGGGIGLAEGYLERLNKAIQSRPSVFHIPVTPAHGDYDACLLGAAFQFKE”: the “soluble on expression in E. coli” value is “not soluble”.

As to “MSTEKWRTGLQIQQLHTPTDNVDRSAMKKISSMFSALQEKFQRAKAGAPTPAAVAPPAGRESHCGLRFFEYLLVVSLRKRSSGVGYEPQVTYQFPKREVMGRLQREQEEKSMKAAHLFCFPEGVHWAPVTEYSSETFSFVLTEVDGSRRNGYCRRLLPAGKGARLPEAYCIISHVACFGLFSKIFDEVEKRRQISTAMIYPFMQSLREAPLPSPGSTVSISSFIPDAGTQIIRLTRPADSWLEHVDFTALFSRLNDEELLLVFTAAVLERRIIFISEELSTLSQVLHAVAALLYPFVWQHTFISIVPSVLIDVCEAPTPYLLGVQKSMMGLITDHSDVMIVDLSTGAPTKFITRIGDEESLLPLKLKEELLSGLSARTHHASTEQLNRLVSEAFLSVFVKTVGHFSEHIKRGGKPRQFQKKSFLKAVENKTYSSFVKLFIQTQMFDLFIQEEETQSNPNGFFHRKVKEHRDRMKQEKAKAGWVRGVVI”, the “soluble on expression in E. coli” value is recorded as “soluble”.

As for “MSLKITDLELHAVGIPRHTGFVNKHVIVKIHTDEGLTGIGEMSDFSHLPLYSVDLHDLKQGLLSILLGQNPFDLMKINKELTDNFPETMYYYEKGSFIRNGIDNALHDLCAKYLDISVSDFLGGRVKEKIKVCYPIFRHRFSEEVESNLDVVRQKLEQGFDVFRLYVGKNLDADEEFLSRVKEEFGSRVRIKSYDFSHLLNWKDAHRAIKRLTKYDLGLEMIESPAPRNDFDGLYQLRLKTDYPISEHVWSFKQQQEMIKKDAIDIFNISPVFIGGLTSAKKAAYAAEVASKDVVLGTTQELSVGTAAMAHLGCSLTNINHTSDPTGPELYVGDVVKNRVTYKDGYLYAPDRSVKGLGIELDESLLAKYQVPDLSWDNVTVHQLQDRTADTKSEGHHHHHH”, the “soluble on expression in E. coli” value was “soluble”.

For the sequence “MIKIKAIERKAGFGKTSKTLWYPAIHLHSDVKFEEFIELVSDETTVSSADIKAVFDRAAKVLIRLLQDGKSIDCGDMGTYRPSITAKAGSGVDSADKVTVELVDKAKVIYTPRMKVKTALKGVRMERAERVLDVPYASSIKPNENNSGGSSSSDNNGHAGL”, the “soluble on expression in E. coli” value was “not soluble”.

Turning to “MDERFISFVCLLFTMEFQKYRTMHFPRDVYIGHDVLNRVLDVVDQNSRTRDVIIVTGNTTYELAGKKIVEILASSPYEVHLSFAGEANYENLKKIEEETNDVNAGIIIGVGGGTKIDLAKKLAYDKNLPFISIPTSPSHDGIASPRASLRRNGISYSEEGAMPIGVIADTSVMIKAPYRYLAAGAADVISNISAVKDWKLAHRLRGEEFSSSAAAMSEYSAQEVISQVGEIRKYDESSVWLVTKNILASGTAMAIAGNSRPGSGSEHLFAHALEAAGVNNMLHGEMCAMGTIVSLYLHDDNWQKIRDVFESLGVSVKARDYGLKEEVVIEALRRAHAIRPERYTILGESDMSYDAAVKALELTGII”, the “soluble on expression in E. coli” value is listed as “not soluble”.

Turning to “MGSDKIHHHHHHMTMTKKDALLLAAKELFGEYGYSETTFKKISERAGVALGLLTHHYGNKEKLFLAAGLDVLDRFIVYLQDACAKGNNGYESVMNFCRAYLDFSIDKNEHFMVLVRCSPYSDMKTKTDRDIMYEKFNQVPRELEYHVRRGIEDGSLKSLPAYETTTVLTCNLVGSIRTKLLTPYAPPSLYDDVLEFISRSIKA”, the “soluble on expression in E. coli” value is recorded as “not soluble”.

In the case of “MSLKYKLLVLDVDGTLLNDAKEISKRTLAALLKVQQMGVRIVLASGRPTYGLMPLAKSLELGNYGGYILSYNGCQIINAQNGEILFERRINPEMLPYLEKKARKNNFALFTYHDDTIITDTPENEHIQNEARLNNLKVIKEEEFSVAIDFAPCKCMLVSDDEEALVSLEGHWKRRLNGALDVFRSEPYFLEVVPCAIDKANTLGALLEELDVKREEVIAIGDGVCDVTMIQLAGLGVAMGHSQDSVKVCADYVTASNEEDGVALAVEKAIIAEVRAAEIPLDQLNAQARHALMGNLGIQYTYADEDRVEATMPVDHRTRQPFGILHGGATLALGETVAGLGSMILCQPDEIVVGMQVSGNHISSAHEGDTVRAVATIVHKGRSSHVWNVDVFTSTNKLVSSIRVVNSVMKKREGHHHHHH”, the “soluble on expression in E. coli” value was “soluble”.

Take “MGICVVIPAFNAALTIEAVVRETLEQGLPLVVVDDGSEDGTADCVRGLPVNLVSHGRNRGKGAALKTGFAWALEYGFSGVITLDSDGQHDPTAITLLAETAKNDGWDILVASRFAQFNQMAGLRRHWNRFGAWCMKKRTGFQIDDSQSGFRYYSARLLRMVSLGKDGYDLEMEILMKAWQAGCTIGSVPVPARVADGRATSHFRPVRDTWNICMTFLRYMLEHHHHHH”: the “soluble on expression in E. coli” value is given as “not soluble”.

“MAGRKKTTACKLFVLDTNVLLHDPTCLYRFEEHDVFIPIITLEELDTHKKGMSEVARNARQASRFLDDIISGNELNISEGIPLKHASRDAASGKLILQTQAINGTLPSSLPMGKADNQILGIVMALKSHYQGRAVILVSKDINMRIKARALGLEAEDYFNDKVLEDTDVL”: the “soluble on expression in E. coli” value was “not soluble”.

With “VNPKQPDLGVHVHLVRNVCTVSLDSSGASLDRRGYRTEAGEAPLRETLAAALVEMTGWDGTVPLLDPMCGSGTILVEAALKALNRAPGLIRERFGFQHWPSFDSSLWLRLVTEARQGERTSLESPLLGSDQQADLLSVAAANARRAGVEQHISFTSGDVRGLTPPPAPGIILFNPPYGRRLGDEEGLRVLYRQIGDVLKQRCAGYTAWLLTGGPELAKAVGLRASRRIVLFNGPLECRFLRFDLY”, the “soluble on expression in E. coli” value was “not soluble”.

Consider “MSLSVKILALDTATERCSVALLVGNTVYSRSEIAPRDHTKKVLPMVDEVLKEAGVTLQELDALAFGRGPGSFTGVRIGIGIAQGLAFGADLPMIGISTLAAMAQAAYRLQGLTHVASAIDARMEEVYWGRYVRQEDGSWQVAEAECVIAPALLAQTLTQDDLTQDEQIWATAGTGWDAYPALADLPLQLQTSEVLYPDAQDMAYLAQFELAQGNKVSVEQASPVYLRDTVAWKKLPGREEGHHHHHH”, for which the “soluble on expression in E. coli” value is listed as “soluble”.

In the case of “MKAVTYDTDSELAYIYVLPPKKNRNVRTEELRVNDCLLLDISQDGKIAGFECFGEAAHLCAPFAGKSRLYVKDSDGYHFRVCQHASVRSCYTVYRVTFCFSDGDYQEFAGFDLDGTMYHSAFLQRLTEKLEHHHHHH”, the “soluble on expression in E. coli” value is “not soluble”.

As for “MGSDKIHHHHHHMTRQCHPLATVVDACAPLRFAPLPDLRLRSFTRSGDQGDAGQWCRADLLAAKNAFAPVYDGFVAATRPGHRLPAATHFLRAVFREPIFLVAAGLYLTGRAPLLDASHLWFPVRADRTLGTPMLTELKVAVTADDRFAGHPETVTFPGSDDVVRAAAHAMVAAFTPVIDALSAHTRVGKRTLWGWVLDTAHFYMLNPARFLGRDAQAAWALANRLADALLEAGAVTRARPRLFPFCDNHPRGTWAVRGTCCFDYKGDPEHGYCTTCPHKCDNERRNELQEWLRNPALAP”, the “soluble on expression in E. coli” value is listed as “not soluble”.

As to “SWQTYVDTNLVGTGAVTQAAILGLDGNTWATSAGFAVTPAQGQTLASAFNNADPIRASGFDLAGVHYVTLRADDRSIYGKKGSAGVITVKTSKSILVGVYNEKIQPGTAANVVEKLADYLIGQGF”, the “soluble on expression in E. coli” value was “soluble”.

For the sequence “MALVLTFLGKGGVGRTTVAIAAAKKLAQAGQRVLVLGQDPSLAWQWGITLSETAQGVEANVDGLLLSSTHLLERGWEKLKEVEAQYLRSPALKNIYGEELGVLPGMDEVLVLNALREYELSGRYDVLIYDGPGNLSTLRMLGIPEIASWYWRRFQKVLADSEVVQTLSPFVQPVASAVLSVNWSPDQMLNHPDGPQNLLQQGKAAIADPNRFAAYLVTSTDSLAQKAAQSYWGGAQQVGVTVKGVIQTPLGNGSLDANLFDPLLIAALPSYNQGNWQPLMDALPNPQAMGSAPRPLEIDVNARQVKVFLPGFDKRQVKLTQSGPELTIEAGDQRRNIDLPGNLRGKGVTGAKFQGGYLIVSFLEHHHHHH”, the “soluble on expression in E. coli” value is on record as “not soluble”.

On to “MGSDKIHHHHHHMNGFCARLRAITHNERLKMKIAVLLSGGVDSSYSAYSLKEQGHELVGIYLKLHASEKKHDLYIKNAQKACEFLGIPLEVLDFQKDFKSAVYDEFINAYEEGQTPNPCALCNPLMKFGLALDHALKLGCEKIATGHYARVKEIDKISYIQEALDKTKDQSYFLYALEHEVIAKLVFPLGDLLKKDIKPLALNAMPFLGTLETYKESQEICFVEKSYIDTLKKHVEVEKEGVVKNLQGEVIGTHKGYMQYTIGKRKGFSIKGALEPHFVVGIDAKKNELVVGKKEDLATHSLKAKNKSLMKDFKDGEYFIKARYRSVPAKAHVSLKDEVIEVGFKEPFYGVAKGQALVVYKDDILLGGGVIV”, for which the “soluble on expression in E. coli” value is on record as “not soluble”.

“MAHHHHHHMECGYRNEGKFHQVVLNIKEKIEKHDLSKWKDIVKPEEGPKYDEYFERLLRGGTPEKDSHEEDSNEKHTHETHDLPAEQAEETPPEVCEPPGDEKNKTEFQLNKEFFDKISNKEKFYFLLNIKEMMETSWLLAQKRLEGIKLEEKSKPVNVQDLLNYSQKIADTTCAPPECDNINDKIMHQEYYPNYHFLNFVNVEEIHLSKLFQLQKYSTVCFPPIITIQEGKDNMLAIDITCSTPHATIYYRMNDDPNEQIYNTDDKPQIRKRKKVNVYAWSVKDGHIKSRVSCISKSYKVEEDDSFPLSDNLPNKEQGEQQTGSSKMGVEANAPGKPSQITNVFKNLGFLLSRKKEKTEEPSSNGESSSEG”: the “soluble on expression in E. coli” value is on record as “not soluble”.

For “MSLVNQLSLFIDVVQQGSFTKAAALHDMDNSALSKQIKKLEAELGVQLLNRSTRTFSLTPAGEEILEQAYQLVGSLDNVKSIADSYQAVPKGRIRITAPLHIGQGYLQPVISQFMTTYPDVEVVLMMDDKRSDIISEHFDVAFRLGRLDDSSLIAKKVADIRGVILASHSLIERFGEPSTPEELVNLPSVIYSNGTLTVDTVRLGESPDSSQFKSYKMKGNYKVNDVRTLLSAVQDGLGYAVVASSNLERSIESMGLTTLLTDYPLCNQGLAIYALYPHRKQTALVREFISAVQKHIGHPPLWEQHIPNFASLYPVKKGQ”, the “soluble on expression in E. coli” value is given as “not soluble”.

As to “MGHHHHHHSHMFFKQFYDKHLSQASYLIGCQKTGEAMIIDPIRDLSSYIRVADEEGLTITHAAETHIHADFASGIRDVAIKLNASIYVSGESDDTLGYKNMPNQTHFVQHNDDIYVGNIKLKVLHTPGHTPESISFLLTDEGAGAQVPMGLFSGDFIFVGDIGRPDLLEKAVKVEGSSEIGAKQMFKSIESIKDLPNYIQIWPGHGAGSPCGKSLGAIPTSTLGYEKQTNWAFSENNEATFIDKLISDQPAPPHHFAQMKKINQFGMNLYQPYTVYPATNTNRLTFDLRSKEAYHGGHIEGTINIPYDKNFINQIGWYLNYDQEINLIGEYHLVSKATHTLQLIGYDDVAGYQLPQSKIQTRSIHSEDITGNESHILDVRNDNEWNNGHLSQAVHVPHGKLLETDLPFNRNDVIYVHCQSGIRSSIAIGILEHKGYHNIINVNEGYKDIHLS”, the “soluble on expression in E. coli” value is given as “not soluble”.

Regarding “MAHHHHHHMGKLQAPCSPTVCGYPLPYPRSLSHNLFNVIQDTRRKGKTNTEQSELKNEGDPLTLSPIVPKVDTSPATESKGRRREEKPLAHEGQLLKHKLDVWRDLFLASAAQQLAASGHPRSRRDDAGNVFYSNISCYLKEGCIVKSEDTDLRTGPRDHLRVQGAYLSHLAPEAFANLHVTLDGNTFVLRNVQRTSPTIKQISEELCEERGIRLLPTAMQKKVAYLVSQVSTSTKERAGTISGKKGLATSKWKHTNSLQTCKHSLNMELPEVTYRSRVLSTIREGAYGSPFQKGCKM”, the “soluble on expression in E. coli” value was “not soluble”.

For the origin of these results see the DeepSol protein solubility set.
